Laboratory results reported in patent publication US20230002481A1 (Chugai, published 2023).

Molecular target: T1, recombinant human C1r2s2 tetramer (human, UniProt P09871 16-688; P00736 18-705)
T1 construct: Heterotetramer of two C1r and two C1s chains, co-expressed in FreeStyle293-F cells; also called human C1r2s2s
T1 chain 1: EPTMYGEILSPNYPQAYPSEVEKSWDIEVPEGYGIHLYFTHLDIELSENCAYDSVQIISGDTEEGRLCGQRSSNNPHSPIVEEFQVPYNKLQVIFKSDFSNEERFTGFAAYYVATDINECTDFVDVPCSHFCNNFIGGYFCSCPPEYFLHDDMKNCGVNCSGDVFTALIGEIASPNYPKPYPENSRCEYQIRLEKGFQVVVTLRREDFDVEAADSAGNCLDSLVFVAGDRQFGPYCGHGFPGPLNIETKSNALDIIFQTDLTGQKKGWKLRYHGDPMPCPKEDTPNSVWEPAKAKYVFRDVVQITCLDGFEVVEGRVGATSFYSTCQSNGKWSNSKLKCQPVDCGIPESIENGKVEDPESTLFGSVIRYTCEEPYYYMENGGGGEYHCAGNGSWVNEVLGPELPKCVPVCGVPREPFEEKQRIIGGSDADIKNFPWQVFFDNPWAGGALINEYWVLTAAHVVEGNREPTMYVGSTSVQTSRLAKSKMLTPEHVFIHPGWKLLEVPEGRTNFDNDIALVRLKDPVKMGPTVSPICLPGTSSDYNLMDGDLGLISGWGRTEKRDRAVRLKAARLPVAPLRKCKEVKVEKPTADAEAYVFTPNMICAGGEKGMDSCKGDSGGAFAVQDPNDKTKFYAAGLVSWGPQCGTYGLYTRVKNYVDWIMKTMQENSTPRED
T1 chain 2: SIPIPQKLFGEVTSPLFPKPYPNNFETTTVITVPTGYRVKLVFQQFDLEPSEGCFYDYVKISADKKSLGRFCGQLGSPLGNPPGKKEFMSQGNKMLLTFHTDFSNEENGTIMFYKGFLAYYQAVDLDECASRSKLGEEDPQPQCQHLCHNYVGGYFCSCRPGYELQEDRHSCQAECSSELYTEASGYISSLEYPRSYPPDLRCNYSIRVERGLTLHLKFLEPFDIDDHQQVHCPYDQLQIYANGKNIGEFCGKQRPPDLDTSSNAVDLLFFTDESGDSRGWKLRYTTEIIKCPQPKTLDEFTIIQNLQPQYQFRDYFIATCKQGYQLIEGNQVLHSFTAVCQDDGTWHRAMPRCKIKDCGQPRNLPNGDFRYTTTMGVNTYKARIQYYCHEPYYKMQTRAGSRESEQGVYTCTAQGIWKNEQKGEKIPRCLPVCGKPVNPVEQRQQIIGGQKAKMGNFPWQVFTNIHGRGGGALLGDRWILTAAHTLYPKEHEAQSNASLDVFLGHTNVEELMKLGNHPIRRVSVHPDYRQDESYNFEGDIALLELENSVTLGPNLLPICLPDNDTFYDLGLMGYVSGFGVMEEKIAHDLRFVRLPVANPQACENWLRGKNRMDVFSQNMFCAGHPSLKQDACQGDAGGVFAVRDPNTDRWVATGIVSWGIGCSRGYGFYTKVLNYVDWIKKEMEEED
Assay: SPR (Biacore), antibody captured on ProA/G, antigen as analyte, 37 C, pH7.4, 1.2 mM CaCl2; pH 7.4
Procedure: The kinetic parameters of anti-C1s antibodies against recombinant human C1s (as described in PCT/JP2018/042054), human C1r2s2, and cyno C1r2s2 His/Flag (also referred as cyno C1r2s2 in the Table and Figures) were assessed at pH7.4 and pH5.8, at 37 degrees C. using BIACORE (registered trademark) T200 instrument (GE Healthcare) or BIACORE 4000 (GE Healthcare). ProAG (Pierce) was immobilized onto a CM4 sensorchip using amine coupling kit (GE Healthcare) according to the recommended settings by GE Healthcare. Antibodies and analytes were diluted into the respective running buffers, ACES pH7.4 and pH5.8 (20 mM ACES, 150 mM NaCl, 1.2 mM CaCl₂, 1 mg/ml BSA, 1 mg/ml CMD, 0.05% Tween 20, 0.005 w/v % NaN₃). Each antibody was captured onto the sensor surface by ProA/G. Antibody capture levels were typically 100-200 resonance units (RU). Then, recombinant C1s was injected at concentrations of 25 and 50 nM followed by dissociation at pH7.4 and pH5.8. The surface was regenerated using 10 mM Glycine-HCl, pH1.5. Kinetic parameters at neutral pH conditions and acidic conditions were determined by fitting the sensorgrams with 1:1 binding model using BIACORE (registered trademark) T200 Evaluation software, version 2.0 (GE Healthcare) or BIACORE 4000 Evaluation software. The dissociation rate at pH5.8 (after dissociation at pH7.4, indicated as pH5.8* in TABLE 2) was determined by processing and fitting data using Scrubber 2.0 (BioLogic Software) curve fitting software. The association rate (ka), dissociation rate (kd), binding affinity (KD) at pH7.4 and pH5.8 condition, and dissociation rate (kd) at pH5.8* condition of the antibodies are listed in TABLE 2. Some kinetic parameters of COS0098pHv1 in acidic condition were not correctly calculated because of its weak binding response.
Also, to observe the cross-reactivity of anti-C1s antibodies against human C1r2s2 and cyno C1r2s2 (cyno C1r2s2 His/Flag), BIACORE (registered trademark) kinetics analysis was performed.

B1: COS0098bb (antibody, V domains shown)
VH: QSVEESGGRLVTPGTPLTLTCTVSGFSLTKYTVSWVRQAPGKGLEWIGIINTGGSAYYATWAKGRFTFSKTSTTVDLQITSPTTEDTATYFCARGNGDTDYTNLWGPGTLVTVSS
VL: QVLTQTPSSVSEPVGGTVTINCQASENIYSALAWYQQKPGQPPKLLIYGASNLESGVPSRFKGSGSGTQFTLTISDLECADAATYYCQQYYFTSSTFGGGTKVEIK
notes: Anti-C1s rabbit antibody, parent of COS0098pHv1; the antibody was captured by ProA/G; also called anti-C1s antibody COS0098bb
Kd: 0.213 nM
koff: 0.0002 s⁻¹
kon: 936000 M⁻¹ s⁻¹
